Results taken from patent US20160251675.

System: Plant OsNAM12.1 (SUMOylated, from rice root protein extract; genotype of the sample not stated)

In the case of deSUMOylating protease Ulp1, the “deSUMOylation by protease treatment, immunoblot” value is reported as “putative di-SUMOylated (-53 kD; 29+12+12) rather than the putative mono-SUMOylated (-41 kD; 29+12) OsNAM12.1 was preferentially deSUMOylated”.
